Measurements as given in patent publication US20240076389A1 (NATIONAL RESEARCH COUNCIL OF CANADA, published 2024).
Substitutions are numbered along the chain they refer to.

T1: recombinant human AXL extracellular domain, C-terminally His8-tagged (rhAXL-ECD) (human, UniProt P30530 26-451)
T1 construct: Made in CHO cells; also called (rh)AXL-ECD His8; human AXL ECD
T1 sequence: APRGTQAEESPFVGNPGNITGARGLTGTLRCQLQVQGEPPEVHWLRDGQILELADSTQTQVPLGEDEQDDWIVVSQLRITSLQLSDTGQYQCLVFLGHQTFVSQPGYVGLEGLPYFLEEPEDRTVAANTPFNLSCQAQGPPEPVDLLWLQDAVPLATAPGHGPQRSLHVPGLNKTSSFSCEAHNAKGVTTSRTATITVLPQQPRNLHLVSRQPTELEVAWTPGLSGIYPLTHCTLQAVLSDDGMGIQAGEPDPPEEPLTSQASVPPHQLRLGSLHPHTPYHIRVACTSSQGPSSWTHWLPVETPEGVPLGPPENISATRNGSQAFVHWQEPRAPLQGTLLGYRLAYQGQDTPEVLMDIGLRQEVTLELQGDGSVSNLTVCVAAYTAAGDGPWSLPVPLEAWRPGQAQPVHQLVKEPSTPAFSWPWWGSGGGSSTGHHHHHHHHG

T2: mouse AXL extracellular domain (Sino cat. 51026-M08H) (mouse, UniProt Q00993 19-445)
T2 construct: extracellular domain; Bought protein; also called mouse AXL ECD
T2 sequence (looked up): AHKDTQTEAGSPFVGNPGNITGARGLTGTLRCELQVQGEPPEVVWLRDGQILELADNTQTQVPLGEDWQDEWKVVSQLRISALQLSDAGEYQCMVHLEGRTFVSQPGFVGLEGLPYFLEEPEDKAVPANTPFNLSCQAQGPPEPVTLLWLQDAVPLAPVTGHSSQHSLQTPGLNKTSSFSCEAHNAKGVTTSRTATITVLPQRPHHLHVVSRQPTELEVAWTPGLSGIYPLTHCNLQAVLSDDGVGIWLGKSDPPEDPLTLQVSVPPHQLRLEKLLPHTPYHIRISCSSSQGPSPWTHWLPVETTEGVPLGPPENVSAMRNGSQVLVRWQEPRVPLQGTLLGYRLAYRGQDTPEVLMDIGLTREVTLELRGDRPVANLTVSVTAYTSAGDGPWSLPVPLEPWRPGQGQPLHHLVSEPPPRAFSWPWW

T3: human AXL expressed on the cell surface of tumor cell lines (human, UniProt P30530 26-894)
T3 construct: whole, on cells; also called cell surface-expressed AXL; cell-based AXL
T3 sequence (looked up): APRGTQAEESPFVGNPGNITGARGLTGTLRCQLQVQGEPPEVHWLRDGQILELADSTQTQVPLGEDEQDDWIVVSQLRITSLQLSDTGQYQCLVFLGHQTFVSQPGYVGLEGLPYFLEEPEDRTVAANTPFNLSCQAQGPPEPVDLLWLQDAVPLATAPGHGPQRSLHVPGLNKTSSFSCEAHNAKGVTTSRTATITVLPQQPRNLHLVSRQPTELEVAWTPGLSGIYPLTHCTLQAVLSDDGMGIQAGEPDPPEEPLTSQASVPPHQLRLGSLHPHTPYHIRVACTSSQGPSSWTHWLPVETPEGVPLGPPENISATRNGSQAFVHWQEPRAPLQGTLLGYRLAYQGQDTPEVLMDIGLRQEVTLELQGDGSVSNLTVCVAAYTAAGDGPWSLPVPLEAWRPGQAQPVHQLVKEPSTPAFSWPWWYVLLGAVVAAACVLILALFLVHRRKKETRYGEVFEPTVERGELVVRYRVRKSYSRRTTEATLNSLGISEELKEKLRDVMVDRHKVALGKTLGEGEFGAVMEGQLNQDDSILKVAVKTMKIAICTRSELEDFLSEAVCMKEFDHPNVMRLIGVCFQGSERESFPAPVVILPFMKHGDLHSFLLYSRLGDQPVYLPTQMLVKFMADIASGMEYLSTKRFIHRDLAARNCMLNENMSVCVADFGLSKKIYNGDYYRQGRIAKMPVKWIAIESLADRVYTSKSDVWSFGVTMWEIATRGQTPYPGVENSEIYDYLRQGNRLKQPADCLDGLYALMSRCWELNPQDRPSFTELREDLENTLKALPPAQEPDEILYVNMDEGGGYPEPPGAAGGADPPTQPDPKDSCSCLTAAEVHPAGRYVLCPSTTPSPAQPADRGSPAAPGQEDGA

B1: NRC-sdAb002 (VHH monomer) (VHH)
VHH: QVQLVDSGGGLVQAGGSLRLSCATSTRTVSSAVMAWFRQAPEKVRDFVGFITNSGNILYDDSVKGRFTISRDNAQNTVYLQMNSLKPEDTAVYYCAAKWSFSSGYGDLRRAAMYDYWGQGTQVTVSS
notes: Llama VHH monomer; not shown: 6xHis and Myc tags
B2: hFC-F107-8D12 (antibody, human IgG1, kappa, V domains shown)
VH: QVQLQQPGAELVKPGASVQLSCKASGYTFISFWINWVKQRPGQGLEWMGNIFPGSSSTNYNEKFKSKATLTVDKSSSTAYMQLSSLTSEDSAVYFCARDYYGGSPDYWGQGTTLTVSS
VL: DIVMSQSPSSLAVSAGERVTMSCKSSQSLLNTRTRKNYLAWYQQKPGQSPKLLIYWASTRESGVPDRFTGSGSGTDFTLTISSVQAEDLAVYYCKQSYNLWTFGGGTKLEIKR
notes: Chimeric mAb, human IgG1 / human kappa constant regions; also called mAb F107-8D12; chimeric F107-8D12
B3: hFC-F107-7H5 (antibody, human IgG1, kappa, V domains shown)
VH: QVQLQQPGAELVKPGASVKLSCKASGYTFTSYWINWVKQRPGQGLEWIGNIYPDSSSTNYNEKFKSKATLTVDKSSTTAYIQFSSLTSEDSAVYYCTRDTYGGSPDYWGQGTTLTVSS
VL: B2 VL with R18K, T32S, N37I, E61Q
notes: Chimeric mAb, mouse VH/VL on human IgG1 heavy and human kappa light constant regions, made in CHO cells; also called mAb F107-7H5; hIgG-F107-7H5
B4: hFC-F111-5E9 (antibody, human IgG1, kappa, V domains shown)
VH: QIQLVQSGPELKKPGETVKISCKASGYTFTKYGMNWVKQAPGKGLKWMGWINTYTGEPTYADDFKGRFAFSLETSASTAYLQINNLTTEDMVTYFCAKGGYYSNPIYPMDYWGQGTSVTVSS
VL: DIQMTQTTSSLSASLGDRVTISCRASQDINNYLNWYQQKPDGTVKLLIYYISRLHSGVPSRFSGSGSGTDYSLTISNLELEDVATYFCQQGNTLPFTFGSGTKLEIKR
notes: Chimeric mAb, human IgG1 / human kappa constant regions; also called mAb F111-5E9; hIgG-F111-5E9

Tests used:
[1] = target: T1, recombinant human AXL extracellular …; assay: SPR, steady-state analysis (format not stated)
Procedure: For VH Hs and VHH-Fcs, binding to human and cynomolgus AXL ECD was assessed using either a Biacore T200 instrument or a Biacore 3000 instrument. Either human AXL ECD or anti-human Fc antibody was immobilized on a research-grade CM5 series S sensor chip (T200, rhAXL ECD) or a C1 sensor chip (3000, anti-human Fc) using amine coupling in acetate buffer. VHH-Fcs were captured on anti-human Fc surfaces. Either monomeric VHHs (for rhAXL ECD surfaces) or human and cyno AXL ECD (for VHH-Fc surfaces) were flowed over the surfaces at different concentration ranges. Running buffers were HBS-EP (3000) and HBS-EP+(T200). Flow rates were 10-40 ul/min. All binding studies were performed at 25° C. Surfaces were regenerated using 10 mM glycine, pH 1.5.

[2] = target: T1, recombinant human AXL extracellular …; assay: SPR Biacore T200, mAb captured on anti-Fc, AXL ECD flowed, single-cycle kinetics
Procedure: (§1) Surface plasmon resonance. For murine mAbs, binding to human and cynomolgus AXL ECD was assessed using a Biacore T200 instrument. Briefly, either anti-mouse or anti-human Fc antibody was immobilized on a research-grade CM5 series S sensor chip using amine coupling in acetate buffer. Murine or recombinant chimeric murine-human mAbs (mouse VH/VL; human constant regions) were captured, then recombinant human or cyno AXL ECD was flowed over the surface at different concentration ranges (0.1-500 nM) depending on the antibody. The running buffer was PBS/Tween-20 and the flow rate 100 uL/min. All binding studies were performed at 25° C. Surfaces were regenerated using 10 mM glycine, pH 1.5.

[3] = target: T1, recombinant human AXL extracellular …; assay: ELISA on coated AXL ECD (100 ng/well), HRP-protein A
Procedure: (§2) ELISA. ELISAs against human, cyno and mouse AXL ECDs were conducted by immobilizing 100 ng of each protein in wells of Nunc MaxiSorp microplates overnight. Human AXL (aa 1-451) and cyno AXL (aa 1-449) were produced recombinantly as described in Example 10. Mouse AXL was purchased from Sino (cat. 51026-M08H). The next day, plates were blocked with 5% (w/v) dried milk in PBS. Murine mAbs (either hybridoma- or recombinantly-produced) or VHH-Fcs were diluted in PBS containing 1% BSA and 0.1% Tween-20 and added to wells for 2 hours at room temperature. Wells were washed 5× with PBS containing 0.1% Tween-20, then HRP-labeled protein A (diluted 1:1000 in PBS containing 1% BSA and 0.1% Tween™-20) was added to wells for 1 hour at room temperature. Wells were washed again 5× with PBS/0.1% Tween-20 and developed using TMB substrate. Absorbance was measured at 450 nm. As a positive control for mouse AXL binding, a commercial anti-mouse AXL mAb (clone 175128, R&D Systems MAB8541, rat IgG2A) was used and detected with donkey […] secondary antibody.

[4] = target: T4, recombinant cynomolgus AXL extracellular domain (cynomolgus); assay: SPR Biacore T200, mAb captured on anti-Fc, AXL ECD flowed, steady-state analysis
T4 construct: range 1-449; also called Cyno AXL; cyno AXL ECD
Procedure: as §1

[5] = target: T2, mouse AXL extracellular domain (Sino …); assay: ELISA on coated mouse AXL ECD (100 ng/well)
Procedure: as §2

[6] = target: T3, human AXL expressed on the cell surface …; assay: FACS on SKOV3 cells, apparent Kd
Procedure: (§3) FACS binding assay. Adherent cells were dissociated with non-enzymatic Sigma Cell Dissociation Solution (Cat. No. C5789). Cells suspensions were added to polypropylene, V-bottom 96-well plates and incubated for 2 hours on ice with primary antibodies at concentrations ranging from 100 nM to 0.001 nM or at a single dose of 100 nM (for the non-specific control). After incubation and washes, cells were incubated with fluorescently labeled secondary antibody (Alexa Fluor® 488 anti-human IgG from Jackson Cat. No 709-546-098) for 1 hour on ice, then washed. Cell viability was determined using Fixable viability dye 450 (20 min on ice). Stained cells were fixed in 1% formaldehyde at 4° C. and stored at 4° C. until acquisition which was performed the next day.
(§4) Binding of recombinant chimeric Abs to three cell lines was assessed by FACS as described above. The apparent Bmax and Kd determination is shown below in Table 14.

[7] = target: T3, human AXL expressed on the cell surface …; assay: FACS on MDA-MB-231 luciferase cells, apparent Kd
Procedure: as §3, §4

[8] = target: T3, human AXL expressed on the cell surface …; assay: FACS on NCI-H292 cells, apparent Kd
Procedure: as §3, §4

[9] = target: T1, recombinant human AXL extracellular …; assay: SPR Biacore T200, mAb captured on anti-Fc, AXL ECD flowed (no footnote in the cell)
Procedure: as §1

[10] = target: T4, recombinant cynomolgus AXL …; assay: SPR Biacore T200, mAb captured on anti-Fc, AXL ECD flowed, single-cycle kinetics
Procedure: as §1

Row | Binder | Kd [1] [nM] | Kd [2] [nM] | koff [2] [s⁻¹] | kon [2] [M⁻¹ s⁻¹] | EC50 [3] [nM] | Kd [4] [nM] | binding result [5] | Kd [6] [nM] | Kd [7] [nM] | Kd [8] [nM] | koff [9] [s⁻¹] | kon [9] [M⁻¹ s⁻¹] | Kd [10] [nM] | koff [10] [s⁻¹] | kon [10] [M⁻¹ s⁻¹]
1 | B1 | 96 | – | – | – | – | – | – | – | – | – | – | – | – | – | –
2 | B2 | – | 5 | 0.013 | 2.7e+06 | 1 | 1840 | no binding | – | – | – | – | – | – | – | –
3 | B3 | – | 1 | – | – | 6 | 925 | no binding | 0.07 | 0.17 | 0.0509 | 0.0015 | 1.4e+06 | – | – | –
4 | B4 | – | 2 | 0.0018 | 780000 | 2 | – | no binding | – | 0.366 | – | – | – | 4 | 0.0027 | 690000
